Laboratory results as given in PMC8799719 (2022).
Read-outs that look alike come from different tables or passages of the source.

How the values were obtained:
[1] = molecular target: T1, triple-helical peptide (THP) [(POG)10]3 (synthetic construct, O of each POG triplet, as printed in (POG)10); assay: ITC
[2] = molecular target: T1, triple-helical peptide (THP) [(POG)10]3; assay: ITC; remark: listed apart in the source

B1: recombinant activator domain of VhaC (domain or fragment)
chain: SAEQAANVCDVEAFTSNSSNDVLNAIKTQGASCVNALFSAESRIQEAAFESGHMYNIAKHTTDLAKAYAGGGSDELEALFLYLRAGYYAEFYNSKVSFLSWVTPAVKEAVDAFVNNANFYENSDPHGKVLSEVIITMDSAGLQHAYLPQVTQWLTRWDSQYAQNWYMRNAVNGVFTILFGGQWNEQFVQTIGNQTELAKALGDFALRSSAIGASDEFMAANAGRELGRLTKYSGSASSTVKSKLTEIFAQYEMYGRGDAIWLGAADTVSYYADCSDY
Kd [1]: 82.8 µM

B2: ColG-activator domain (domain or fragment)
chain: YDFEYLNGLSYTELTNLIKNIKWNQINGLFNYSTGSQKFFGDKNRVQAIINALQESGRTYTANDMKGIETFTEVLRAGFYLGYYNDGLSYLNDRNFQDKCIPAMIAIQKNPNFKLGTAVQDEVITSLGKLIGNASANAEVVNNCVPVLKQFRENLNQYAPDYVKGTAVNELIKGIEFDFSGAAYEKDVKTMPWYGKIDPFINELKALGLYGNITSATEWASDVGIYYLSKFGLYSTNRNDIVQSLEKAVDMYKYGKIAFVAMERITWDYD
Kd [2]: 3.28 µM
